The target in test [1] is Vip3Aa64 protoxin, wild type (Bacillus thuringiensis). Nature of the test: AUC.
For test [2] the target is unchanged. Put plainly: mass photometry.

One substance from publication PMC11594144 can be followed below.

What is called stoichiometry N is a count of units in the complex or per binding partner.

Regarding “Vip3Aa64 protoxin, wild type (natural protein)”, the stoichiometry N in test [1] and in test [2] was 4 in each case.
